Experimental data reported in paper PMC2174365 (The Journal of Cell Biology, 2000).

Tests used:
[1] = target: microtubules (taxol-stabilized; polymer of alpha- and beta-tubulin); experiment: cell-based or functional assay
cross-linking = target: the molecule itself; experiment: cross-linking

Row | Binder | Km(MT) of the microtubule-stimulated ATPase, with 200 μM DTNB [1] | Km(MT) of the microtubule-stimulated ATPase, without DTNB [1] | stoichiometry N (cross-linking)
1 | Cys344 Cys-light K560-GFP (neck coiled-coil mutant Tyr344Cys) (domain or fragment, human, UniProt P33176 1-560, looked up) MADLAESNIKVMCRFRPLNESEVNRGDKYIAKFQGEDTVVIASKPYAFDRVFQSSTSQEQVYNDAAKKIVKDVLEGYNGTIFAYGQTSSGKTHTMEGKLHDPEGMGIIPRIVQDIFNYIYSMDENLEFHIKVSYFEIYLDKIRDLLDVSKTNLSVHEDKNRVPYVKGATERFVSSPDEVMDTIDEGKSNRHVAVTNMNEHSSRSHSIFLINVKQENTQTEQKLSGKLYLVDLAGSEKVSKTGAEGAVLDEAKNINKSLSALGNVISALAEGSTYVPYRDSKMTRILQDSLGGNARTTIVICCSPSSYNESETKSTLLFGQRAKTIKNTVSVNVELTAEQWKKKCEKEKEKNKILRNTIQWLENELNRWRNGETVPIDEQFDKEKANLEAFTVDKDITLTNDKPATAIGVIGNFTDAERRKAEEEIAKLYKQLDDKDEEINQQSQLVEKLKTQMLDQEELLASTRRDQDNMQAELNRLQAENDASKEEVKEVLQALEELAVNYDQKSQEVEDKTKEYELLSDELNQKSATLASIDAELQKLKEMTNHQKKRAAEMMASLLK | 1.24 μM tubulin | 0.84 μM tubulin | 2
2 | Cys337 Cys-light K560-GFP (neck coiled-coil mutant Ala337Cys) (domain or fragment, human, UniProt P33176 1-560, looked up) MADLAESNIKVMCRFRPLNESEVNRGDKYIAKFQGEDTVVIASKPYAFDRVFQSSTSQEQVYNDAAKKIVKDVLEGYNGTIFAYGQTSSGKTHTMEGKLHDPEGMGIIPRIVQDIFNYIYSMDENLEFHIKVSYFEIYLDKIRDLLDVSKTNLSVHEDKNRVPYVKGATERFVSSPDEVMDTIDEGKSNRHVAVTNMNEHSSRSHSIFLINVKQENTQTEQKLSGKLYLVDLAGSEKVSKTGAEGAVLDEAKNINKSLSALGNVISALAEGSTYVPYRDSKMTRILQDSLGGNARTTIVICCSPSSYNESETKSTLLFGQRAKTIKNTVSVNVELTCEQWKKKYEKEKEKNKILRNTIQWLENELNRWRNGETVPIDEQFDKEKANLEAFTVDKDITLTNDKPATAIGVIGNFTDAERRKAEEEIAKLYKQLDDKDEEINQQSQLVEKLKTQMLDQEELLASTRRDQDNMQAELNRLQAENDASKEEVKEVLQALEELAVNYDQKSQEVEDKTKEYELLSDELNQKSATLASIDAELQKLKEMTNHQKKRAAEMMASLLK | 1.59 μM tubulin | 1.2 μM tubulin | 2
3 | Cys337/Cys344 Cys-light K560-GFP (neck coiled-coil double mutant Ala337Cys/Tyr344Cys) (domain or fragment, human, UniProt P33176 1-560, looked up) MADLAESNIKVMCRFRPLNESEVNRGDKYIAKFQGEDTVVIASKPYAFDRVFQSSTSQEQVYNDAAKKIVKDVLEGYNGTIFAYGQTSSGKTHTMEGKLHDPEGMGIIPRIVQDIFNYIYSMDENLEFHIKVSYFEIYLDKIRDLLDVSKTNLSVHEDKNRVPYVKGATERFVSSPDEVMDTIDEGKSNRHVAVTNMNEHSSRSHSIFLINVKQENTQTEQKLSGKLYLVDLAGSEKVSKTGAEGAVLDEAKNINKSLSALGNVISALAEGSTYVPYRDSKMTRILQDSLGGNARTTIVICCSPSSYNESETKSTLLFGQRAKTIKNTVSVNVELTCEQWKKKCEKEKEKNKILRNTIQWLENELNRWRNGETVPIDEQFDKEKANLEAFTVDKDITLTNDKPATAIGVIGNFTDAERRKAEEEIAKLYKQLDDKDEEINQQSQLVEKLKTQMLDQEELLASTRRDQDNMQAELNRLQAENDASKEEVKEVLQALEELAVNYDQKSQEVEDKTKEYELLSDELNQKSATLASIDAELQKLKEMTNHQKKRAAEMMASLLK | 1.51 μM tubulin | 1.19 μM tubulin | –
